According to US20100203046A1 (Biogen, published 2010):
Values belong to the binder of their own block, whether it stands above or below them.

Key:
human C1q (Sigma C0660) [1] = target: T1, human C1q (Sigma C0660) (human, UniProt P02745 23-245; P02746 28-253; P02747 29-245); experiment: C1q ELISA on CD2, purified
T1 construct: Bought protein; also called complement protein C1q
Experimental: (§1) The C1q binding assay was performed by coating 96 well Maxisorb ELISA plates (Nalge-Nunc Rochester, N.Y., USA) with 50 μl recombinant soluble human CD2 at 10 μg/ml overnight at 4° C. in PBS. The wells were aspirated and washed three times with wash buffer (PBS, 0.05% Tween 20) and blocked for >1 h with 200 μ/well of block/diluent buffer (0.1 M Na₂HPO₄, pH 7, 0.1 M NaCl, 0.05% Tween 20, 0.1% gelatin). The antibody to be tested was diluted in block/diluent buffer starting at 15 μg/ml with 3-fold dilutions. 50 μl were added per well, and the plates incubated for 2 h at room temperature. After aspirating and washing as above, 50 μl/well of 2 μg/ml of Sigma human C1q (C0660) diluted in block/diluent buffer was added and incubated for 1.5 h at room temperature. After aspirating and washing as above, 50 μl/well of chicken anti human C1q (Cedarlane laboratories CL2101AP), diluted 2,000-fold in block/diluent buffer, was added. After incubation for 1.5 h at room temperature, the wells were aspirated and washed as above. 50 μl/well of donkey F(ab′)₂ anti chicken IgY HRP conjugate (Jackson ImmunoResearch 703-036-155) diluted to 1:5,000 in block/diluent was then added, and the wells incubated for 1 h at room temperature. After aspirating and washing as above, 100 μl TMB substrate (420 μM TMB, 0.004% H₂O₂ in 0.1 M sodium acetate/citric acid buffer, pH 4.9) was added and incubated for 2 min before the reaction was stopped with 100 μl 2 N sulfuric acid. The absorbance was read at 450 nm with a Softmax P instrument, and Softmax software was used to determine the relative binding affinity (C value) with a 4-parameter fit.

[2] = target: T2, human FcγRIII (CD16), CD16a (F158), on CD16-transfected Jurkat cells (human, UniProt P08637 17-254); experiment: CD16 bridging assay, purified
T2 construct: whole, on cells
T2 sequence (P08637 17-254): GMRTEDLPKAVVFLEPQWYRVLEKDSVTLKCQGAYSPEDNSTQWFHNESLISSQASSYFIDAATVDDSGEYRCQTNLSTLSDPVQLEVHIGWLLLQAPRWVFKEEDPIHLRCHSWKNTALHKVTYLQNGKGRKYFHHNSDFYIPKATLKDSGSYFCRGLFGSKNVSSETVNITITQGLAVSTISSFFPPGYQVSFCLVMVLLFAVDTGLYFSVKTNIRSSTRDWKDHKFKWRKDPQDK

[3] = target: T3, human FcγRI (CD64) on IFNγ-activated U937 cells (human, UniProt P12314 16-374); experiment: CD64 bridging assay, purified
T3 construct: whole, on cells; also called FcγR1
T3 sequence (P12314 16-374): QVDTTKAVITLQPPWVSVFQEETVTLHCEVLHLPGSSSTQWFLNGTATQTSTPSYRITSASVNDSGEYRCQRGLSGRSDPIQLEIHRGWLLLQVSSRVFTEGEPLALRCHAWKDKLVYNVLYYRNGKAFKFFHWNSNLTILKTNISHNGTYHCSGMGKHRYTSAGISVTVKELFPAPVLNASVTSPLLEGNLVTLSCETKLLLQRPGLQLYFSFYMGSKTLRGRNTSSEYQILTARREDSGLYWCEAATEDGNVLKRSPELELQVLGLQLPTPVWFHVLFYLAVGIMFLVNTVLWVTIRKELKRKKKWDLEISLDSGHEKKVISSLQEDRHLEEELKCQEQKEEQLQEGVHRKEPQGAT

[4] = target: T2, human FcγRIII (CD16), CD16a (F158), on …; experiment: CD16 bridging assay, transient
human C1q (Sigma C0660) [5] = target: T1, human C1q (Sigma C0660); experiment: C1q ELISA on CD2, transient
Experimental: as §1

[6] = target: T2, human FcγRIII (CD16), CD16a (F158), on …; experiment: CD16 bridging assay, transient; remark: listed apart in the source
[7] = target: T2, human FcγRIII (CD16), CD16a (F158), on …; experiment: CD16 bridging assay, transient; remark: listed apart in the source

T1 sequence (P02745 23-245 limits assumed, chain 1 of 3): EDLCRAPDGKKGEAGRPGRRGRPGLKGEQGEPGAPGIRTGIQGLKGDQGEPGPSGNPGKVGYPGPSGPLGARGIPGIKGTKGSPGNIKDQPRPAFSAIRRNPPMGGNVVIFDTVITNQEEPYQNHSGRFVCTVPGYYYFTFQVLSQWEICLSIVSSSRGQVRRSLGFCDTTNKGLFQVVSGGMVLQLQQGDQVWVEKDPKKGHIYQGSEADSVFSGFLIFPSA
T1 sequence (P02746 28-253 limits assumed, chain 2 of 3): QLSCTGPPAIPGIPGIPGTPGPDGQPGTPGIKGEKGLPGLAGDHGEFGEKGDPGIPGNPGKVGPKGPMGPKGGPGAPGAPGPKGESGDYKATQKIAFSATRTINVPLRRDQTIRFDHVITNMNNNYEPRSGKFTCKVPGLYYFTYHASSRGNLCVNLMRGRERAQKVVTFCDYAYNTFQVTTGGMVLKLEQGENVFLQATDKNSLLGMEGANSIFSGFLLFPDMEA
T1 sequence (P02747 29-245 limits assumed, chain 3 of 3): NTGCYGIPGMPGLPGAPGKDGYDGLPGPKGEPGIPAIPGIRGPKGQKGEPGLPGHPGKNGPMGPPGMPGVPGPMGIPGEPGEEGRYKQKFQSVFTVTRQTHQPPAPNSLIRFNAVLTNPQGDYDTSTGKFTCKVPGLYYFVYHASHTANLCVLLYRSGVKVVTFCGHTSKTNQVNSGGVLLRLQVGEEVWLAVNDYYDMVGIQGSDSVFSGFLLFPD

B3: chCB6-huIgG1 S239D/A378Y (antibody, name in EU numbering)
heavy: not shown
light: QIVLTQSPAIMSASPGEKVTMTCRASSSVSHMHWYQQKSGTSPKRWIYDTSKLASGVPARFSGSGSGTSYSLTISSVEAEDAATYYCQQWSSNPLTFGAGTKLELKRTVAAPSVFIFPPSDEQLKSGTASVVCLLNNFYPREAKVQWKVDNALQSGNSQESVTEQDSKDSTYSLSSTLTLSKADYEKHKVYACEVTHQGLSSPVTKSFNRGEC
notes: copies: 2 + 2
fold increase in binding vs WT [4]: 4 fold

B5: chCB6-huIgG1 R301T (antibody, name in EU numbering)
heavy: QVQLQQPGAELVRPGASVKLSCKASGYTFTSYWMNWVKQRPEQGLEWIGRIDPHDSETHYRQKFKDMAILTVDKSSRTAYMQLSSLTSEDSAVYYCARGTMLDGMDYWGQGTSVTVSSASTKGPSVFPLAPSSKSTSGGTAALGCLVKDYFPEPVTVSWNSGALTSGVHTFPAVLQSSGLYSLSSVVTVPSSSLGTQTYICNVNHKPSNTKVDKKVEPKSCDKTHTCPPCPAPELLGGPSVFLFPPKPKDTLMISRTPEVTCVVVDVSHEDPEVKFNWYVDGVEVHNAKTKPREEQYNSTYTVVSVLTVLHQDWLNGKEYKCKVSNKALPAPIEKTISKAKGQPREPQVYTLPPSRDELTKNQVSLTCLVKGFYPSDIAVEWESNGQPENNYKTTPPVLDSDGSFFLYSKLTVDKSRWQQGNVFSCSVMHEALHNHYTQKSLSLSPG
light: B3 light
notes: copies: 2 + 2
binding result (human C1q (Sigma C0660) [5]): binds | binding result [6]: binds

B6: chCB6-huIgG1 R301S (antibody, name in EU numbering)
heavy: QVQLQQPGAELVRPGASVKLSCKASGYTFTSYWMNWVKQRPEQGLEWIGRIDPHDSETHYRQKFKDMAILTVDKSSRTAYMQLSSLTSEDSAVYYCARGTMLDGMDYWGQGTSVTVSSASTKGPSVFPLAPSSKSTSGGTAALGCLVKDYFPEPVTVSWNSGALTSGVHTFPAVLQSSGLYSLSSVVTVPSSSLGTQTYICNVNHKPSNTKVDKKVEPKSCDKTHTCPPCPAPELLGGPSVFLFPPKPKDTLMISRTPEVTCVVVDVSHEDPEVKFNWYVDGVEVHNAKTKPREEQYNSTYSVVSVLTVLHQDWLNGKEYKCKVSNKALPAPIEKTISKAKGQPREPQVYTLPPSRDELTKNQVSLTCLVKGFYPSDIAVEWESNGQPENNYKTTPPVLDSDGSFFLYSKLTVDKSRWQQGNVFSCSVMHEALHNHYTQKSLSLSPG
light: B3 light
notes: copies: 2 + 2
binding result (human C1q (Sigma C0660) [5]): binds | binding result [6]: binds

B7: chCB6-huIgG1 Y296Q (antibody, name in EU numbering)
heavy: not shown
light: B3 light
notes: copies: 2 + 2
fold decrease in binding vs WT (human C1q (Sigma C0660) [5]): 4 fold | fold decrease in binding vs WT [6]: 5 fold

B8: chCB6-huIgG1 S239D/H435G (antibody, name in EU numbering)
heavy: not shown
light: B3 light
notes: copies: 2 + 2
fold increase in binding vs WT [4]: 3 fold

B12: chCB6-huIgG1 E294N (antibody, name in EU numbering)
heavy: not shown
light: B3 light
notes: copies: 2 + 2
fold decrease in binding vs WT (human C1q (Sigma C0660) [5]): 7 fold | fold decrease in binding vs WT [6]: 8 fold

B13: chCB6-huIgG1 L328Q (antibody, name in EU numbering)
heavy: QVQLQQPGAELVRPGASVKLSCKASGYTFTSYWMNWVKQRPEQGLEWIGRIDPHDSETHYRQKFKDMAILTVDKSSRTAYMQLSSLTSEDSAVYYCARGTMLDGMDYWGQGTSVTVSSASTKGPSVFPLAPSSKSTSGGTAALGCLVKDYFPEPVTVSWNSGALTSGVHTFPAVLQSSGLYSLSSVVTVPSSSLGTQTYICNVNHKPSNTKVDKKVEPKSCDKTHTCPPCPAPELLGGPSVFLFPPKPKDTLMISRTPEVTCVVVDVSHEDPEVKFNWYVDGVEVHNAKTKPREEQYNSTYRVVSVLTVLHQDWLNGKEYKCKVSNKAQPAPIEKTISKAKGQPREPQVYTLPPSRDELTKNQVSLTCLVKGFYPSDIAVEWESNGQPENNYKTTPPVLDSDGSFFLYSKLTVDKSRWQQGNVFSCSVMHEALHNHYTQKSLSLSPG
light: B3 light
notes: copies: 2 + 2
binding result (human C1q (Sigma C0660) [1]): no binding | fold decrease in binding vs WT [2]: 2 fold | binding result [3]: binds | fold decrease in binding vs WT [7]: 3 fold

B14: chCB6-huIgG1 R301N (antibody, name in EU numbering)
heavy: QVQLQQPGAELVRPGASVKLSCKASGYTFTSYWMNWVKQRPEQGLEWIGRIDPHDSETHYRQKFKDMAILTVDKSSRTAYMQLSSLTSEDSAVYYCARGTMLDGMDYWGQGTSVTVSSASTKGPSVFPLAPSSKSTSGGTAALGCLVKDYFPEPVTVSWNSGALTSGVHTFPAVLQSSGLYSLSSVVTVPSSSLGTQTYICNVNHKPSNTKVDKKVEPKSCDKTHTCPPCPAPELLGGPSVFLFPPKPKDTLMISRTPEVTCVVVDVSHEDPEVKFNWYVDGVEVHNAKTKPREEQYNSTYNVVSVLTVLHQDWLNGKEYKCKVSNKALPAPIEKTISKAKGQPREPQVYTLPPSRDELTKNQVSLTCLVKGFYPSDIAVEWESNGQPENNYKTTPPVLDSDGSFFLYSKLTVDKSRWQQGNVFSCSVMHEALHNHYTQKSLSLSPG
light: B3 light
notes: copies: 2 + 2
fold decrease in binding vs WT (human C1q (Sigma C0660) [5]): 3 fold | fold decrease in binding vs WT [6]: 5 fold

Now from value to binder:

binding result (human C1q (Sigma C0660) [1]): binds | fold decrease in binding vs WT [2]: 2 fold | binding result [3]: binds
B1: chCB6-huIgG1 I332H (antibody, name in EU numbering)
heavy: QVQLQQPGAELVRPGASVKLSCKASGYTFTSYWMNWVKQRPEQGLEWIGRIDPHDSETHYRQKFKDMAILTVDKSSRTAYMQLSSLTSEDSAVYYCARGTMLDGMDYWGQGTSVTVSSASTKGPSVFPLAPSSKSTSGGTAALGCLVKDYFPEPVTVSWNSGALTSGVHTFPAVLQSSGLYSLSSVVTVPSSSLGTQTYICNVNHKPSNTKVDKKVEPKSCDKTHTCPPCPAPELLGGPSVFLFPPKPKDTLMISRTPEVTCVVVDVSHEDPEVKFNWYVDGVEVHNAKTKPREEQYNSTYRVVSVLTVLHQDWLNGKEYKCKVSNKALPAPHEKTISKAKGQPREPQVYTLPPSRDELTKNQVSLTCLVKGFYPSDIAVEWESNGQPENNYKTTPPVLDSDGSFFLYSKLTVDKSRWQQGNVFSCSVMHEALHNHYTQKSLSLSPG
light: B3 light
notes: copies: 2 + 2

fold increase in binding vs WT [4]: 4 fold
B2: chCB6-huIgG1 S239D/A378W (antibody, name in EU numbering)
heavy: not shown
light: B3 light
notes: copies: 2 + 2

binding result (human C1q (Sigma C0660) [5]): binds | fold decrease in binding vs WT [6]: 5 fold
B4: chCB6-huIgG1 R301A (antibody, name in EU numbering)
heavy: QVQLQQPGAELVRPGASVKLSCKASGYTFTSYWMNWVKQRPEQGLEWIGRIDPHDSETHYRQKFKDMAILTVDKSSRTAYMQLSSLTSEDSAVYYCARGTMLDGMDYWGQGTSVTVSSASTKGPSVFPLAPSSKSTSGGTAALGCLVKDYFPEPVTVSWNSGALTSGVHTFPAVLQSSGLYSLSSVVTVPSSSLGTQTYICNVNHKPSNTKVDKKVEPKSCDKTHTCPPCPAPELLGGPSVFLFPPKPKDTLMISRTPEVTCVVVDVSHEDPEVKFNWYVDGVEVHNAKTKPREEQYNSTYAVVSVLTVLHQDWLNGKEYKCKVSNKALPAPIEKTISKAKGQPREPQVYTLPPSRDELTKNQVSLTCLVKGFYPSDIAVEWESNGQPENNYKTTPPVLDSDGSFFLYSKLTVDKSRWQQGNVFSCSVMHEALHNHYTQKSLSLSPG
light: B3 light
notes: copies: 2 + 2

binding result (human C1q (Sigma C0660) [1]): binds | fold increase in binding vs WT [2]: 2 fold | binding result [3]: binds | fold increase in binding vs WT [7]: 2 fold
B9: chCB6-huIgG1 I332Q (antibody, name in EU numbering)
heavy: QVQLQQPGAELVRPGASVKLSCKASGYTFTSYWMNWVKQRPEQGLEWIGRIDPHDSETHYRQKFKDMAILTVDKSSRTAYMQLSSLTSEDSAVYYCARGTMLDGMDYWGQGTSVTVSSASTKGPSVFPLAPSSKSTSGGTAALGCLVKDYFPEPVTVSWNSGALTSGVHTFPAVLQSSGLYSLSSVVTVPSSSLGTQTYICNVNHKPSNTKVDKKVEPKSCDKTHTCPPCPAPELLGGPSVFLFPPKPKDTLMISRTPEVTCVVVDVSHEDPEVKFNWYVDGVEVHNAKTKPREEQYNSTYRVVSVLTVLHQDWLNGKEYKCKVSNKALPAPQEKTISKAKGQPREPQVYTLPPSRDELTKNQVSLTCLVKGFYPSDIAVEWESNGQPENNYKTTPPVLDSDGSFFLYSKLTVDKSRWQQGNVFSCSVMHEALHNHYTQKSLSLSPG
light: B3 light
notes: copies: 2 + 2

fold decrease in binding vs WT (human C1q (Sigma C0660) [5]): 3 fold | binding result [6]: no binding
B10: chCB6-huIgG1 Y296T (antibody, name in EU numbering)
heavy: not shown
light: B3 light
notes: copies: 2 + 2

fold decrease in binding vs WT [6]: 8 fold
B11: chCB6-huIgG1 E294T (antibody, name in EU numbering)
heavy: not shown
light: B3 light
notes: copies: 2 + 2

binding result (human C1q (Sigma C0660) [5]): binds | fold decrease in binding vs WT [6]: 5 fold
B15: chCB6-huIgG1 R301K (antibody, name in EU numbering)
heavy: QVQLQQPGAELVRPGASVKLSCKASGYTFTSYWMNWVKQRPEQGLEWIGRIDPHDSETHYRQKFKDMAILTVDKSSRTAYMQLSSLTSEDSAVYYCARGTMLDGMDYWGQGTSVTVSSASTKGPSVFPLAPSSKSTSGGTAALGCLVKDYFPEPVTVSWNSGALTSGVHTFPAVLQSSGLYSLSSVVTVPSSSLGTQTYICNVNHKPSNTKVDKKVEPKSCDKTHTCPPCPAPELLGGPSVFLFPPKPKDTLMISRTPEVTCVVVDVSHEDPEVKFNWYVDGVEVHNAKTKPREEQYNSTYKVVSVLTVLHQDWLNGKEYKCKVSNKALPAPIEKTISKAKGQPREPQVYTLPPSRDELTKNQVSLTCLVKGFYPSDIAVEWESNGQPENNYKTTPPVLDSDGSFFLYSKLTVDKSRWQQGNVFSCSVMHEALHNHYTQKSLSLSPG
light: B3 light
notes: copies: 2 + 2
